The values that follow come from publication PMC11850899 (Communications Biology, 2025).

Substitutions are numbered along the chain they refer to. Names and notes keep the numbering of the source. Like-named read-outs stand apart in the source and are kept apart here.

Data set [1] concerns the molecule itself. The data set is described as follows: cryo-EM structure.
Data set [2] deals with the molecule itself. The data set is described as follows: cryo-EM structure. The source holds these as a separate data set.

B1: Bacillus subtilis DSR2 (defense-associated sirtuin 2), wild type (enzyme)
chain: MVKVDLESKRYGEKLKEVFLMLDNNVVECIKEITESSRNGKLVFFVGAGVSTLSDYPQWWRLVDKYHEELYGSPKKGNYSSDEYLRIPQIFYNVKGEMAFDGILKDFFQVDKPTNPIHDKILAMNPAHVITTNYDNLIDTACWKRGKYFSVISAEEDVANATSSRYLLKVHGDFRKGFKGENVVLKEDDYLNYDQNYPLISNLMKTIIATHTIVFIGYGLGDYNINMLLNWVRKLQKDSFHKPFFIRTDPSPIENETLIYYENKGLRIIDAASLIDSNEYDYLERYSAVMDLLIESQENKFITKDDEVIDYIYGKISPLFALQYIRKIDLKHVFEYDYHFEVNGTVVRHKNKGFGYMERFFELKESCDERSKLSKKQYERFNALFNFFEKNGVICMAKDAGTLNTSIEINSLAYHGKYDVMKKFIEEQSVSIEDDYKKAFFLACLGRWEESYDLYSNIILNSIDESNGCVYYLSQINRYRIYQSITQAVTQFNGLGLLTFGRHYKPFTDEFLARIEREMTNFNIDDLFNGMPFEFQKKYKILEFLSDNQFLYDDTVKLFELTNKVRSEMSEGSYSFGMSSDIVVLLRLYDNLRFLYENCLWSVSFHEFHQYIRNSMSLLIEKAEYERTRDIDELGFSFFGKKSGFFMEYYDFVNISRHFKIDDIKNLERSCSIDKIRFGEQEKIEEYLVGIAEEITKQFSANGMNVVFYTQFISEAKAALYFAKYVKLSEEGLGKIVKALLFYFPERDLDIGKRYVWLERLTKCNELPKSIISIIDDFLVLQAEKHIDQNYSEVSSNGLYSRDYGALIKHFEKNFISKRLSEITLCLTQDKQKQIDFLFKLLPLLSTNAKSHLLSFKSVENINDLMNGIRIGLIDEFTPEHEELIIEYLETRKVNYIVEKEKGIQTFSSNDYMSTFGIWYFLEEINNSKMEEFIGMDDQYDFFVDPENFDYKKFIPSWLKNYNDKLLGKIAGNKHMKHHVIEVLKERVKNSNDKRYLEILMNYFI
The stoichiometry N is the number of molecules, sites or subunits per partner or assembly. B1: in “cryo-EM structure [1]”, the “stoichiometry N” value turned out to be 4.

B2: Bacillus subtilis DSR2 H171A (catalytic mutant) (enzyme, UniProt P0DXN8 1-1005, looked up)
chain: B1 chain with H171A
Consider B2, for which, in “cryo-EM structure [2]”, the “stoichiometry N” value was 4.
